Assay results: the nanobody polyreactivity screen of Harvey et al. (2022)

assay: yeast display, Sf9 membrane polyspecificity reagent, FACS + sequencing; frameworks hold sequencing errors
Method in brief: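 Galactose-induced (36–48 hours) yeast carrying a synthetic nanobody display library were exposed to 10% biotinylated, detergent-solubilized Sf9 membrane reagent at 4 °C for 1 hour. FACS followed streptavidin microbead enrichment, using low and high (top ~1%) gates for expression (anti-HA) and reagent binding (streptavidin). Colony PCR, MiSeq 2 × 250 sequencing and CDR-length filtering followed. Labels for polyreactivity reflect the gate of origin.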

Row | Sequence | polyreactivity (PSR sort gate)
1 | QVQLVESGGGLVQAGGSLRLSCAASGIIFSFYAMGWYRQAHGKERELVADITLSGGRTYYADSVKGRFTISRDNAKNTVYLQMNSLKPEDTAVYYCNADTYERGDYWGQGTQVTVSS | high polyreactivity
2 | QVQLVESGGGLVQAGGSLRLSCAASGIIFSINAMGWYRQAPGKERELVAAISRSGGSTNYADSVKGRFTISRDNAKNTVYLQMNSLKPEDTAVYYCATVHRYSVWSHNYWGQGTQVTVSS | high polyreactivity
3 | QVQLVESGGGLVQAGGSLRLSCAASGIIFSLYAMGWYRQAPGKERELVAAISASDGSTYYAVSVKGRFTISRDNAKNTVYLQMNSLKPEDTAVYYCAADSRPTQEYDYWGQGTQVTVSS | low polyreactivity
4 | QVQLVESGGGLVQAGGSLRLSCAASGIIFSLYVMGWYRQAPGKERELVAAIRSGGSTYYADSVKGRFTISRDNAKNTVYLQMNSLKPEDTAGDYCAARVRSGTGVGFDYWGQGTQVTVSS | high polyreactivity
5 | QVQLVESGGGLVQAGGSLRLSCAASGIIFSNYAMGWYRQAPGKERELVAAITRSGGRTYYADSVKGRFTISRDNAKNTVYLQMNSLKPEDTAVYYCAATGRSGVLSSYYYWGQGTQVTVSS | high polyreactivity
6 | QVQLVESGGGLVQAGGSLRLSCAASGIIFSPNAMGWYRQAPGKEMELVAGISSGGSTYYADSVKGRFTISRDNAKNTVYFQMNSLKPEDTAVYYCNRGWAHSNAKFDYWGQGTQVTVSS | high polyreactivity
7 | QVQLVESGGGLVQAGGSLRLSCAASGIIFSPNAMGWYRQAPGKERELVAGISSGGSTYYADSVKGRFTLSRDNAKNTVYLQMNSLKPEDTAVYYCAVRSRIFGSWYGYGYWGQGTQVTVSS | high polyreactivity
8 | QVQLVESGGGLVQAGGSLRLSCAASGIIFSQYAMGWYRQAPGKERELVATITSRGASTYYADSVKGRFTISRDNAKNTVYLQMNSLKPEDTAVYYCAATVRRRYERYNYWGQGTQVTVSS | high polyreactivity
9 | QVQLVESGGGLVQAGGSLRLSCAASGIIFSRYAMGWYRQAPGKERELDAAISSRGTSTYYADSVKGRFTISRDNAKNTVYLQMNSLKPEDTAVYYCNAVSRPVRHKSTYDYWGQVTQVTVSS | high polyreactivity
10 | QVQLVESGGGLVQAGGSLRLSCAASGIIFSRYAMGWYRQAPGKERELVAVISSSGGRTYYADSVKGRFTISRDNAKNTVYLQMNSLKPEDTAVYYCAAYTRTGSHLRAYYYWGQGTQVTVSS | high polyreactivity
11 | QVQLVESGGGLVQAGGSLRLSCAASGIIFSSYAMGWYRQAPGKERELVADISYTGGSTYYADSVKGRFTISRDNAKNTVYLQMNSLKPEDTAVYYCAAGVYLHYSVDYWGQGTQVTVSS | low polyreactivity
12 | QVQLVESGGGLVQAGGSLRLSCAASGIIFSSYVMGWYRKATGKERELVAAISSRGVSTYYADSVKGRFTISRDNAKNTVYLQMNSLKPEDTAVYYCNAKDKQGRKQFKLCAGYYLGQGTQVTVSS | high polyreactivity
13 | QVQLVESGGGLVQAGGSLRLSCAASGIIFSVYAMGWYRQAPGKERELVAAITWSGSRTYYADSVKGRFTISRDNAKNTVYLQMNSLKPEDTAVYYCATVFRGFVEYEYWGQGTQVTVSS | low polyreactivity
14 | QVQLVESGGGLVQAGGSLRLSCAASGIIFSWYDMGWYRQAPGKERELVAAISYRGSTNYADSVKGRFTISLDNAKNTVYLQMNSLKPEDTAVYYCNGPRRQYEYDYWGQGTQVTVSS | high polyreactivity
15 | QVQLVESGGGLVQAGGSLRLSCAASGIIFSYYAMGWYRQAPGKERELVADISSDGSTNYADSVKGRFTISRDNAKNTVYLQMNSLKPEDTAVYYCAAGYVHYGWFELDYWGQGTQVTVSS | low polyreactivity
16 | QVQLVESGGGLVQAGGSLRLSCAASGIIFSYYVMGWYRQAPGKERELVAAISRSGAITYYADSVKGRFTISRDNAKNTVYLQMNSLKPEDTSVYYCAAELVPYSYHLRLDYWGQGTQVTVSS | high polyreactivity
17 | QVQLVESGGGLVQAGGSLRLSCAASGIIFTKYAMGWYRQAPGTERELVAAITSGGRTNYADSVKGRFTISRDNAKNTDYLQMNSLKPEDTAVYYCAARYPSRDLLRRYKYWGQGTQVTVSS | high polyreactivity
18 | QVQLVESGGGLVQAGGSLRLSCAASGIIFTWYAMGWYRQAPGKERELVAAISGSGDITYYADSVKGRFTISRDNAKNTVFLQMNSLKPEDTAVYYCAADPWTYWEDYDYWGQGTQVTVSS | low polyreactivity
19 | QVQLVESGGGLVQAGGSLRLSCAASGIIFTYAIGWYRQAPGKERELVAAIDWRGGRTYYADSVKGRFTISRDNAKNTVYLHMNSLKREDTAVYYCGARLGGGTYYWGQGTQVTVSS | high polyreactivity
20 | QVQLVESGGGLVQAGGSLRLSCAASGIIFTYYAMGWYRQAPGKERELVAGISSSGGITYADSVKGRFTISRDNAKNTVYLQMNSLKPEDTAVYYCAAESYGRSETEDDYWGQGTQVTVSS | low polyreactivity
21 | QVQLVESGGGLVQAGGSLRLSCAASGIIFTYYAMGWYTQAPGKERELVAAISSRGDSTYYADSVKGRFTISRDNAKNTVYLQMNSLKPEDTAVYYCNRYLSRPLRAMYYWGLGTQVTVSS | high polyreactivity
22 | QVQLVESGGGLVQAGGSLRLSCAASGIIFVDNDMGWYRQAPGKERELVADISDSGGSTNYADSVKGRFTISRDNAKNTVYLQMNSLKPEDTAVYYCAADSADPTEYDYWGQGTQVSVSS | low polyreactivity

Row | Sequence | polyreactivity (PSR sort gate)
23 | QVQLVESGGGLVQAGGSLRLSCAASGIIFVDNVMGWYIQAPGKERELVAAIDYSGGSTYYADSVKGRFTISRDNAKNSVYLQMNSLKPEDTAVYYCAATDPRRRVRYGYWGQGTQVTVSS | low polyreactivity
24 | QVQLVESGGGLVQAGGSLRLSCAASGIIFVFYVMGWYRQAPGKERELVAAISGGGSTYYADSVKGRFTISRDNAKNTVYLQMNSLKPEDTAVYYCNADYDGGYYGDLSLYDYWGQGTQVTVSS | low polyreactivity
25 | QVQLVESGGGLVQAGGSLRLSCAASGIIFVGYAMGWYRQAPGKERELVAGINCGGSTNYADSVKGRFTISRDNAKNTVYFQMNSLKPEDTAVYYCAAYPFDYYGYDYWGLGTQVTVSS | low polyreactivity
26 | QVQLVESGGGLVQAGGSLRLSCAASGIIFVHYALGWYRQAPGKEWQLVAAITSGGSTKYADSVKGRFTISRDNAKNTVYLQMNSLKPEDTAVYYCAAGHYVYWYRYQLGGYNYWGIGTQVTVSS | high polyreactivity
27 | QVQLVESGGGLVQAGGSLRLSCAASGIIFVIYAMVWYRQAPGKERELVAAISSSGGSTYYADSVKGRFTISRDNAKNTVYLLMNSLKPEDTAVYYCAVALSHYFGGYGYWGQGTQLTVSS | low polyreactivity
28 | QVQLVESGGGLVQAGGSLRLSCAASGIIFVKNAMGWYRQAPGKERELVASISGSGGRTYYADSVKGRFTISRDNAKNTVYLQMKSLKPEDTAVYYCNTLLAPHARKARRHDYWGQGTQVTVSS | low polyreactivity
29 | QVQLVESGGGLVQAGGSLRLSCAASGIIFVPNAMGWSRHPPGKERELVAAITGRGVSTYYADSVKGRFTISRDTAKKTVYLQMNSLKPEDTAVYYCAATLFSYSGGTHDYWGQGTQVTVSS | high polyreactivity
30 | QVQLVESGGGLVQAGGSLRLSCAASGIIFVRYAMGWYRQAPGKERELVAAISWSGGSTYYADSVKGRFTISRDNAKNTVYLQMNSLKPEDTAVYYCAADSHRTRGDARYYYWGQGTQVTVSS | high polyreactivity
31 | QVQLVESGGGLVQAGGSLRLSCAASGIIFVWYAMGWYRQAPGKERELVAAIRSGGITNYADSVKGRFTISRDNAKNTVYLQMNSLKPEDTAVYYCDAPYRTDTGDDYWGQGTQVTVSS | low polyreactivity
32 | QVQLVESGGGLVQAGGSLRLSCAASGIIFVYYAMGWYRQAPGKERELVAAISYSGGRTYYADSVKGRFTISRDNAKNTVYLQMNSLKPEDTAVYYCAAVDRRGYRYALDYWGQGTQVTVSS | high polyreactivity
33 | QVQLVESGGGLVQAGGSLRLSCAASGIIFVYYTMGWYRQAPGKERELVAAITSGGSTYYADSVKGRFTISRDNAKNTVYVQMNSLKPEDTAVYYCAAVGRPPYAGDRGYWGQGTQVTVSS | high polyreactivity
34 | QVQLVESGGGLVQAGGSLRLSCAASGIIFWFYAMGWYRQAPGKERELVAAISGDGDSTYYADSVKGRFTISRDNAKNTVYLQMNSLKPEDTAVYYCAAEWDPVFATDEDDYWGQGTQVTVSS | low polyreactivity
35 | QVQLVESGGGLVQAGGSLRLSCAASGIIFWGYAMGWYRQAPGKERELVAAISRGGSTYYADSVKGRFTISRDNAKNTVYLQMNSLKPEDTAVYYCAATGVRTWALDYWGQGTQVTVSS | high polyreactivity
36 | QVQLVESGGGLVQAGGSLRLSCAASGIIFWRYAMGWYRQAPGKERELVASISWSGGSTSYADSVKGRFTISRDNAKNTVYLQMNSLKPEDTAVYYCAAVFYYRRRYYYWGQGTQVTVSS | high polyreactivity
37 | QVQLVESGGGLVQAGGSLRLSCAASGIIFWRYAMGWYRQAPGKERELVATITSGGSTDYADSVKGRFTISRDNAKNTVYLQMNSLKPEDTEVYYCAALGYATGYWRYYYWGQGTQVTVSS | low polyreactivity
38 | QVQLVESGGGLVQAGGSLRLSCAASGIIFWTYTMGWYRQAPGKERELVAAISSGGSTKYADSVKGRFTISRDNAKNTVYLQMNSLKPEDTAVYYCAAYSAWYGYDYWGQGTQVTVSS | low polyreactivity
39 | QVQLVESGGGLVQAGGSLRLSCAASGIIFWTYTMGWYRQAPGKERELVAAISSGGSTNYADSVKGRFTISRDNAKNTVYLQMNSLKPEDTAVYYCAKRRQYQRSYNYWGQGTQVTVSS | low polyreactivity
40 | QVQLVESGGGLVQAGGSLRLSCAASGIIFWTYTMGWYRQAPGKERELVAAISSGGSTTYADSVKGRFTISRDNSMNTVFLQMNWLKPEDTAVYYCAKRRQYQRSYNYWGKGTQVTVSS | low polyreactivity
41 | QVQLVESGGGLVQAGGSLRLSCAASGIIFWVNAMGWYRQAPGKERELVAAIRSDGSTKYADSVKGRFTISRDNAKNTVYLQMNSLKPEDTALYYCAKRDYSYPWFRDYYYWGQGTQVTVSS | low polyreactivity
42 | QVQLVESGGGLVQAGGSLRLSCAASGIIFWYNAMGWYRQAPGKERELVAAISWSGGRTYYADSVKGRFTISRDNAKNTVYLQMNSLKPEDTAVYYCAAKVPRSSRSYGYWGQGTQVTVSS | high polyreactivity
43 | QVQLVESGGGLVQAGGSLRLSCAASGIIFWYNAMGWYRQAPWKERELVASISTGGRTYYADSVKGRFTISRDNAKNTVYLQMNSLKPEDTAVYYCAAASRVGFLYYYWGQGTQVTVSS | low polyreactivity
